Reference: publication PMC4738331, “A molecular mechanism realizing sequence-specific recognition of nucleic acids by TDP-43”

Assays:
[1] = target: T1, TDP-43 RRM1-2 (UniProt Q13148 96-267); experiment: fluorescence anisotropy; Anisotropy: 50 mM Tris, 100 mM NaCl, pH 8.0, 10 C, 0.1 uM probe, 0-30 uM protein (RNasin for RNA); pull-down: same buffer on Ni resin, room temperature, 1 h, eluted with 1 M NaCl; details: protein: recombinant; tags: N-term His6 + thrombin site + GSSGSSG linker; His removed by thrombin for anisotropy, kept for pull-down; label: 5'-fluorescein
[2] = target: T2, TDP-43 RRM1 (UniProt Q13148 96-185); experiment: as above; details: protein: recombinant; tags: N-term His6 + thrombin site + GSSGSSG linker; His removed by thrombin for anisotropy, kept for pull-down; label: 5'-fluorescein
[3] = target: T3, TDP-43 RRM2 (UniProt Q13148 186-267); experiment: as above; details: protein: recombinant; tags: N-term His6 + thrombin site + GSSGSSG linker; His removed by thrombin for anisotropy, kept for pull-down; label: 5'-fluorescein
[4] = target: T1, TDP-43 RRM1-2; experiment: fluorescence anisotropy; RNasin; Anisotropy: 50 mM Tris, 100 mM NaCl, pH 8.0, 10 C, 0.1 uM probe, 0-30 uM protein (RNasin for RNA); pull-down: same buffer on Ni resin, room temperature, 1 h, eluted with 1 M NaCl; details: protein: recombinant; tags: N-term His6 + thrombin site + GSSGSSG linker; His removed by thrombin for anisotropy, kept for pull-down; label: 5'-fluorescein
[5] = target: T2, TDP-43 RRM1; experiment: as above; details: protein: recombinant; tags: N-term His6 + thrombin site + GSSGSSG linker; His removed by thrombin for anisotropy, kept for pull-down; label: 5'-fluorescein
[6] = target: T3, TDP-43 RRM2; experiment: as above; details: protein: recombinant; tags: N-term His6 + thrombin site + GSSGSSG linker; His removed by thrombin for anisotropy, kept for pull-down; label: 5'-fluorescein
[7] = target: T1, TDP-43 RRM1-2; experiment: pull-down; Anisotropy: 50 mM Tris, 100 mM NaCl, pH 8.0, 10 C, 0.1 uM probe, 0-30 uM protein (RNasin for RNA); pull-down: same buffer on Ni resin, room temperature, 1 h, eluted with 1 M NaCl; details: protein: recombinant; tags: N-term His6 + thrombin site + GSSGSSG linker; His removed by thrombin for anisotropy, kept for pull-down
[8] = target: T2, TDP-43 RRM1; experiment: as above; details: protein: recombinant; tags: N-term His6 + thrombin site + GSSGSSG linker; His removed by thrombin for anisotropy, kept for pull-down
[9] = target: T3, TDP-43 RRM2; experiment: as above; details: protein: recombinant; tags: N-term His6 + thrombin site + GSSGSSG linker; His removed by thrombin for anisotropy, kept for pull-down

T3 sequence (Q13148 186-267): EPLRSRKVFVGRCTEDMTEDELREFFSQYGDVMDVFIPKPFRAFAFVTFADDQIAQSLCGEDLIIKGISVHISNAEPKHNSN
T1 sequence (Q13148 96-267): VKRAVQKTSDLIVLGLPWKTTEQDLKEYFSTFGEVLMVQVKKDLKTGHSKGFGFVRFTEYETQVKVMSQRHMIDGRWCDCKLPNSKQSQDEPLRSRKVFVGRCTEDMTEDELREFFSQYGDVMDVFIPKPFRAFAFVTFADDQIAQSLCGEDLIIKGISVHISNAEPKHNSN
T2 sequence (Q13148 96-185): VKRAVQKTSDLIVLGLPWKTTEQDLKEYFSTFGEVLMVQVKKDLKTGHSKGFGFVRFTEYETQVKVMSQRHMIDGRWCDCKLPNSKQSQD

| Binder | binding result [3] | Kd [1] | Kd [2] | binding result [7] | binding result [8] | binding result [9] | also measured |
| --- | --- | --- | --- | --- | --- | --- | --- |
| ACACACAC (ssDNA) [Fl-(AC)4 ssDNA] | no binding | – | – | – | – | – | binding result [1]: no binding; binding result [2]: no binding |
| TGTGTGTG (ssDNA) [Fl-(TG)4 ssDNA] | no binding | 77 ± 4.2 nM | 52 ± 12 nM | – | – | – | – |
| UGUGUGUG (ssRNA) [Fl-(UG)4 RNA] | – | – | – | – | – | – | Kd [4]: 3.5 ± 2.3 nM; Kd [5]: 28 ± 9 nM; binding result [6]: no binding |
| TTTTTTTTTTTTTTTTTTTTTTTTTTTTTT (ssDNA) [T30] | – | – | – | binds | binds | no binding | – |
| UGUGUGUG (ssDNA, DNA with T replaced by U) [Fl-(UG)4 ssDNA] | no binding | 150 ± 23 nM | 61 ± 30 nM | – | – | – | – |
| TTTTTTTTTTTT (ssDNA) [T12] | – | – | – | binds | binds | no binding | – |
